Experimental data: the nanobody polyreactivity screen of Harvey et al. (2022)

Assay: yeast display, Sf9 membrane polyspecificity reagent, FACS + sequencing; frameworks hold sequencing errors
Procedure, shortened: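 Synthetic nanobody libraries on Saccharomyces cerevisiae BJ5465 were galactose-induced for 36–48 hours, stained 1 hour at 4 °C with 10% biotinylated, detergent-solubilized Sf9 membrane reagent and enriched on streptavidin microbeads. FACS then separated cells into low and high (top ~1%) gates by anti-HA (expression) and streptavidin (reagent binding) fluorescence. Genes were colony-PCR amplified, MiSeq 2 × 250 sequenced and CDR-length filtered. A clone's polyreactivity label is that of its gate of origin.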

| Sequence | polyreactivity (PSR sort gate) |
| --- | --- |
| QVQLVESGGGLVQAGGSLRFSCAASGGTFYVYAMGGYRQATGKERELVAAISTSGGSTYYADSVKGRFTISRDNAKNTVYLQMNSLKPEDTAVYYCAARRVSFSGHPRYGYWGQGTQVTVSS | high polyreactivity |
| QVQLVESGGGLVQAGGSLRLSCAASGRIFVYNAMGWYRQAPGKERELVAAISRSGSSTYYADSVKGRFTISRDNAKNTVYLQMNSLKPEDTAVYYCNAVLSRWTQSGKYRYRYFGFEYWGQGTQVTVSS | high polyreactivity |
| QVQLVESGGGLVQAGGSLRLSCAASGSTFGHNAMGWYRQATGKERELVAAISKSGGRTYYADSVKGRFTISRDNAKNTVYLQMNSLKPEDTAVYYCAKDGVVGSGTLNIYDYWGQGTQVTVSS | low polyreactivity |
| QVQIEESGGGLVQEGGSLRISCAASGRIFVYYAMGWNRQAPGKDWELVAAISSGGNTYADSVKGRFTISRDNAKITVYLQMYSLKPDDTAVYYCNASPVSSHVHPKRGYEYWGQGTQVNVSS | low polyreactivity |
| QVQLVESGGGLVQAGGSLRLSCAASGSIFKINAMGWYRQAPWKERDFVAAITWSGGSTYYADSVKGRFTISRDNAKHTVYLQMNSLKPEDTAVYYCNARYFNYSTFGGKMGYWGQGTQVTVSS | high polyreactivity |
| QVQLVESGGGLVQAGGSLRLRCAASGLTFTGNAMGWYRQAPGKEREFVAAIRWSAGSTYYADSVKARFTISRDNAKNTVYLHMNSLKPEDTAVYYCKAALNVSGHYTNDSWGQGTQVTLSS | low polyreactivity |
| QFQLVDSGRGLVQAGGSLRLSCAASGRTFPHYAMGWYRQAPGKERELVAAISSRGGSTYYADSVKGRFTISRDNVKNTVYLQMNSLKPEDTAVYYCAATVGLYRSREYGYWGQGTQVTVSS | low polyreactivity |
| QVQRVESGGRLVQAGGSLRLSCAACGSTFPGNAMGWYRQAPGKERELVAAISSSGGSTDYADSVKGRFTCSRDNAKNTVYLQLNRLKPEDTAVYSCATKYRFCTYRDIAYPYDYWGQGPQVTVSS | low polyreactivity |
| QDQLVESGGGLVQAGGSLRLSCAASGPIFRSYAMGWYRQAPGKEMELVAAISRSGGSTYYADSVKGRFSISRDNAKNSVYLHMNSLKPEDSAVYYCAADYILLGGRRKFDSWGQGTQVTVSS | low polyreactivity |
| QVHLVESGGGLVQAGGSLRLSCAASGLTFNRYTMGWYRQAPGKESELVAAITSSGSTYYADSVKGRFTISRDNAKNTVNLQMNSLKPEDTAVDYCNTVYYDWFHYDYWGQGTQVTVSS | high polyreactivity |
| QVQLVESGGGLVQAGGSLRLSCAASGLIFYSYAMGWYRQAPGKERELVAAITGGGSTNYADSVKGRFTISRDNAKNTVYLPMHSLKPEDTAVYYCAAAFTLRKYDYWGQGTQVTVSS | low polyreactivity |
| QVQLVESGGGLVQAGGSLRLSCAASGRTFPVYAMGWYRQAPGKERELVAGITGSGGRTYYADSVKGRFTISRDNAKNTVYLQMNSLKPEDTAVYYCAADRNLYWYQHEYCGQGTQVTVSS | low polyreactivity |
| QVQLVESGGGLVQAGGSLRLSCAASGSTFVYYAMGWYIQAPGKEREFVAGISRSGGSTYYADSVKGRFTISRDNAMNTVYLQMNSLKPEDTAVYSCNASGGLPKYGYWGQGTQVTVSS | high polyreactivity |
| QVQLVESGGGLVQAGGSLRLSCAASGSNFDAYAIGWYRQAPGKERELVASISIGGSTNYADSVKGRFTISRDNAKNTVYLQMNSLKPEDSAVYYCAAYVYYTYPSGTVYSVSYIYDYWGQGTQVTVSS | low polyreactivity |
| QVQLLESGGGLVQAGGSLRLSCAASGRIFNPYAMGWFRQARGKERALVAASSSCGDRTFYADSVKGRFTISRDNAKNTVYLQMNSRKPEDTAVYFCNTVVYTRFRPWRYGYCGQGTQVTVSS | high polyreactivity |
| QVQLVESGGGLVQAGGSLRLSCAASGRIFYYNAMGWYRQAPGKEWELVAAISSSGTTYYADSVKGRFTISRDNAKNTVYLQMNSLKPEDTAVYYCAAGSYWSPYGQSFWPKYDYWGQGTQVTVSS | high polyreactivity |
| QVQLVESGGGLVLAGGSLRLSCAASGFTFLDNAMGWYRQAPGKERELVAAISGIGGSTSYADSVKGRFTISRDNAKNTVYLQMNSLKPEDTAVYYCATRLYKWSFTPKFEMDHWGQGTQVTVSS | low polyreactivity |
| QVQLVESGGGLDQAGGSLRLTCAAYGSTFRYNAMGWYRQAHGKERELVAAIDKRGDSTYADSVKGSFTISRDNAKNTVYLQMNSMNPDDTAVYYCAADSDSKYYYGFLLDTYEYWGQATQVTVSS | low polyreactivity |
| QVQLVESGGGLVQAGGSLRLSCAASGSTIRYYAMGWYRQAPGKEREFVAAITRSGGRTYYADSVKGRFTISRDNAKNTVYLQMNSLKPEDTADYYCAKVLYSPIGKYDYWGQGTQVTVSS | high polyreactivity |
| QVQLQESGGGLVQAGGSLRPRCAAGGTIFVSVNMGWYRHAPGEEREFVASITQGATTNYADSLIGRFTISRDNAKNTVYLQMNCQNQEDTAVYYCAVHESGGITFTYWGQGTQVTVSS | high polyreactivity |
| QVQLVESGGGLVQAGGSLRLSCAASGGTYRSNAMGWYRQAPGKERELVAASTNYADSVKGRFTISRDNAKNTVYLQMNSLKPEDTAVYYCAAGPTDSQTGMDYWGQGTQVTVSS | low polyreactivity |
| QVQLVESGGGLVQAGGSLRLSCAASGRIFYSNVMGWYRQAPGKERELVAAISGRTGGTYYADSVKGRFTISRDNAKNTVYLQMNSLKPEDTAVYYCAARVGWNKRRYDYWGQGTQVTVSS | low polyreactivity |

| Sequence | polyreactivity (PSR sort gate) |
| --- | --- |
| QVQLVESGGGLVQAGGRLRLSCAASGFTFYWNAMGWYRQAPGKERELVAAINWRGTSTYYADSVKGRFTISRDNAKNTVYLQMNSLKPEDTAVDYCNTYVYVEYDWGQGTQVTVSS | high polyreactivity |
| QVQLVESGGCLVQAGGSLRLSCAASGRTFFGYAMGWYRQAPGKERELVAALTRGGSTNYADSVKGRFTFSRDNAKNTVYLQMNSLKPEDTAVYYCNAERYRSRRYPYRYLYYYWGQGTQVTVSS | high polyreactivity |
| QVQLVESGGVLVQAGGRLSLICAASGRTFARYVMGWYRKAPGKERELVAAINSGGTTYYADSVKGRFTISRDNAKNTVYLQMNSLKPEDTAVYYCNARRGHYAYDYWGQGTQVTVSS | high polyreactivity |
| QVQLVESGGGLVQAGGSLRLSCAASGGIFKQYAMGWYRQAPGKERELVAAITWSGGSTYYADSVKGRFTISRDYAKNTVYLQMNSLKPEDTAVYYCAKDYVLFQYVDFQDDDYWGQGTQVTVSS | low polyreactivity |
| QVQHVESGGGLVQAGGSLRLICAASGIIFDYNAMGWYRQAPGKERELVATNNDSGGSTSYAYSVKGRFTISRDKAKNTVYLQMNCLKPDDTAVYYCAVLPVYWYWRNYVYLSGYDYWGQGSQVTVSS | low polyreactivity |
| QVQLVESGGGLVQAGGSLRLSCAASGNTFNVYAMGWYRQAPGKERELVAAITLSGGSTYYADSVKGRFTFSRDNAKNTVYLQMNSLKPEDTAVYYCNAEDDGTDYDYWGQGTEVTVSS | low polyreactivity |
| QVQLVESGGGLVQAGGSLRLSCAASGSIFTQNAMGWYRQAPGKERALVAAMSSGGSTNDADSVKGRFTISRDNAKNTVYLQMNSLTPEDTAVDYCAKSIDGWYWRRRRYDYWGQGTQVTVSS | low polyreactivity |
| QVQLVESGGGLVQAGGSLRLSCAASGRIFEFNAMGRYIQAPGKERELVARISYSGGSTYYADSLKGRFTISRDNAKNTVYLQMNSLKPEDTAVYYCAAKPSRYFYNAWGYRQVYQYDYWGQGTQVTVSS | high polyreactivity |
| QVQLVESGGGLVQAGGSLRLSCAASGSIFCSYAMGWYRPAPGKERELVAAITQRGGRTYYADSVKGRFTISRENAKNTVYLQMNSLKPEDTAVYYCAAKNRISRPSPYDYWGQGTQVTVSS | high polyreactivity |
| QVQLVESGGGLVQAGGSLRLSCAASGFIFGPNAMGWYRQAPGKERELVAAIRWSGSRTYYADSVKGRFTISRDNAKNTVYLQMNSLKPEDTAVYYCATTYGYYTYDYWGQGTQVTVSS | high polyreactivity |
| QVQLVESGGGLVQAGGSLRLSCAASGFNFPGNAIGWYTPAPGKERELVATISSGGSTKYADSVKGRFTISRDNAKNTVYLQMNSLKPEDTAVYYFAARVYLGVFDYYYWGQGTQVTVSS | low polyreactivity |
| QVQLVESGAGLVQAGGSLRLSCASSGFILTGYTMGWYRQAPGKERELVAAISWSGARTYYADSVKGRFTISRDNAKNTVYLQMNSLKPEDTAVYYCARDYYRPTQRYDYWGQGTQVTVSS | high polyreactivity |
| QVQLVESGGGLVQAGGSLRLSCAASGSIFNYYAMGCYRQAPGKERELVAAIETTGGSTYYADSVKGRFTNSRDNAKNTVYLQMNSLKPEDTAVYYCAATWGKPWYYEYDYWGQGTQVTVSS | low polyreactivity |
| QVQLVESGGGLVQAGGSLRLSCAASGYIFLTNAMGWYRQAPGKERELVAAISVSGGRTYYADSVKGRFTISRDNAKNTVYLQMNSLKPEDTAVYYCNTLLTYGYDYWGQGTQVTVSS | low polyreactivity |
| QVQLVESGGALVQAGGSLRLSCAASGRTFNYNAMGWYRQAPGKERELVAAITSGASTNYADSVKGRFTISRDNAKNTVYLQMNSLKPEDTAVYYCNAEGYVYYLQEDYWGQGTQVNVSS | low polyreactivity |
| QVQLVESGGGLVQAGGSLRLRCAASGSIFESNAMGWYRQAPGKETEFVAAIDQNDGSTYYADSVKGRFTISRDNAKNTVYLQMNSLKPDDTAVYYCAARCYVYRLTWGDYWGQGTQVTVSS | low polyreactivity |
| QVQLVESGGGIVQAGGSLRLSCAGSGSIVSGYTMGWYRQEPGKERELVAAITRSGGRTYYADSVKGRFTISRDYAKNTVYLQMNSLKPEDTSVYYCAAVDRRGANYNYWGQGTQVTVSS | high polyreactivity |
| QVQLVESGGGLVQAGGSLRLSCAASGRTFFYYSMGWYIQAPGKEREFVSGISKSGSSTYYADSVKGRFTISRDNPKNTVYLQLISLKPEDTADSYCAAVSKRGAGGRRTEYWGQGTQVTVSA | high polyreactivity |
| QVQLVESGGGLVQAGGSLRLSCAASGIIFDYYAMGWYRQAPGKVREFVATITSGGSTTYADSVKGRFTISRDNAKNTVYIEMNSLKPEDTAVYYCAARTYWFPDIYPGLGRDYWGQGTQVTVSS | low polyreactivity |
| QVQLVESGGGLVQAGGSLRFSCGGWGSISEVYAMGWYRPAPGKERELVAAITSGASTNYADSVNGRFTISRDNAKNTVYLQMNSLKPEDTAVYYCAADSDSQWGMDYWGQGTQVTVSS | low polyreactivity |
| QVQLVESGGGLVQAVGSLRLSCAASGRIFGYYVMGWYRQAPGKERELVAAITSNGGSTYYADSVKGRFTFSRDNAKNTVYLQMNSLKPEDTAVYYGNKDKRYYRYGYWGQGTQVTVSS | high polyreactivity |
